Measured values from patent US20250313605A1.
*1 amine or outer side, *2 acyl side, *3 side chain or, on linkers, in order; H or OH if unused. Where no end group is shown, it is not given here. Side-chain parts run from the residue outwards. [ ]: non-standard residue; d: D form. The star is where a group is joined. C20 diacid = O=C(O)CCCCCCCCCCCCCCCCCCC(=O)*; γGlu = O=C(O)[C@H](CCC(=O)[*:2])N[*:1]; αMeL = CC(C)C[C@](C)(N)C(=O)O; αMeK = C[C@](N)(CCCCN)C(=O)O; AEEA = NCCOCCOCC(=O)O; Aib = CC(C)(N)C(=O)O

B1: Example 17 (peptide)
peptide: Y[Aib]QGTFTSDYSILLDKK([AEEA-AEEA-γGlu-C20 diacid])AQ[Aib]AFIEYLLE[Aib]GPSSGAPPPS-NH2
modifications: N-terminus assumed
SMILES: CC[C@H](C)[C@H](NC(=O)[C@H](Cc1ccccc1)NC(=O)[C@H](C)NC(=O)C(C)(C)NC(=O)[C@H](CCC(N)=O)NC(=O)[C@H](C)NC(=O)[C@H](CCCCNC(=O)COCCOCCNC(=O)COCCOCCNC(=O)CC[C@H](NC(=O)CCCCCCCCCCCCCCCCCCC(=O)O)C(=O)O)NC(=O)[C@H](CCCCN)NC(=O)[C@H](CC(=O)O)NC(=O)[C@H](CC(C)C)NC(=O)[C@H](CC(C)C)NC(=O)[C@@H](NC(=O)[C@H](CO)NC(=O)[C@H](Cc1ccc(O)cc1)NC(=O)[C@H](CC(=O)O)NC(=O)[C@H](CO)NC(=O)[C@@H](NC(=O)[C@H](Cc1ccccc1)NC(=O)[C@@H](NC(=O)CNC(=O)[C@H](CCC(N)=O)NC(=O)C(C)(C)NC(=O)[C@@H](N)Cc1ccc(O)cc1)[C@@H](C)O)[C@@H](C)O)[C@@H](C)CC)C(=O)N[C@@H](CCC(=O)O)C(=O)N[C@@H](Cc1ccc(O)cc1)C(=O)N[C@@H](CC(C)C)C(=O)N[C@@H](CC(C)C)C(=O)N[C@@H](CCC(=O)O)C(=O)NC(C)(C)C(=O)NCC(=O)N1CCC[C@H]1C(=O)N[C@@H](CO)C(=O)N[C@@H](CO)C(=O)NCC(=O)N[C@@H](C)C(=O)N1CCC[C@H]1C(=O)N1CCC[C@H]1C(=O)N1CCC[C@H]1C(=O)N[C@@H](CO)C(N)=O
B2: Example 3 (peptide)
peptide: Y[Aib]QGTFTSDYSI[αMeL]LDKK([AEEA-AEEA-γGlu-C20 diacid])AQ[αMeK]AFIEYLLEGGPSSGAPPPS-NH2
B3: Example 20 (peptide)
peptide: Y[Aib]QGTFTSDYSILLDKK([AEEA-γGlu-C20 diacid])AQ[Aib]AFIEYLLE[Aib]GPSSGAPPPS-NH2
modifications: N-terminus assumed
SMILES: CC[C@H](C)[C@H](NC(=O)[C@H](Cc1ccccc1)NC(=O)[C@H](C)NC(=O)C(C)(C)NC(=O)[C@H](CCC(N)=O)NC(=O)[C@H](C)NC(=O)[C@H](CCCCNC(=O)COCCOCCNC(=O)CC[C@H](NC(=O)CCCCCCCCCCCCCCCCCCC(=O)O)C(=O)O)NC(=O)[C@H](CCCCN)NC(=O)[C@H](CC(=O)O)NC(=O)[C@H](CC(C)C)NC(=O)[C@H](CC(C)C)NC(=O)[C@@H](NC(=O)[C@H](CO)NC(=O)[C@H](Cc1ccc(O)cc1)NC(=O)[C@H](CC(=O)O)NC(=O)[C@H](CO)NC(=O)[C@@H](NC(=O)[C@H](Cc1ccccc1)NC(=O)[C@@H](NC(=O)CNC(=O)[C@H](CCC(N)=O)NC(=O)C(C)(C)NC(=O)[C@@H](N)Cc1ccc(O)cc1)[C@@H](C)O)[C@@H](C)O)[C@@H](C)CC)C(=O)N[C@@H](CCC(=O)O)C(=O)N[C@@H](Cc1ccc(O)cc1)C(=O)N[C@@H](CC(C)C)C(=O)N[C@@H](CC(C)C)C(=O)N[C@@H](CCC(=O)O)C(=O)NC(C)(C)C(=O)NCC(=O)N1CCC[C@H]1C(=O)N[C@@H](CO)C(=O)N[C@@H](CO)C(=O)NCC(=O)N[C@@H](C)C(=O)N1CCC[C@H]1C(=O)N1CCC[C@H]1C(=O)N1CCC[C@H]1C(=O)N[C@@H](CO)C(N)=O
B4: Example 16 (peptide)
peptide: Y[Aib]QGTFTSDYSILLDKK([AEEA-AEEA-γGlu-C20 diacid])AQ[Aib]AFIEYLLEGGPSSGAPPPS-NH2
B5: Example 19 (peptide)
peptide: Y[Aib]QGTFTSDYSILLDKK([AEEA-γGlu-γGlu-C20 diacid])AQ[Aib]AFIEYLLE[Aib]GPSSGAPPPS-NH2
modifications: N-terminus assumed
SMILES: CC[C@H](C)[C@H](NC(=O)[C@H](Cc1ccccc1)NC(=O)[C@H](C)NC(=O)C(C)(C)NC(=O)[C@H](CCC(N)=O)NC(=O)[C@H](C)NC(=O)[C@H](CCCCNC(=O)COCCOCCNC(=O)CC[C@H](NC(=O)CC[C@H](NC(=O)CCCCCCCCCCCCCCCCCCC(=O)O)C(=O)O)C(=O)O)NC(=O)[C@H](CCCCN)NC(=O)[C@H](CC(=O)O)NC(=O)[C@H](CC(C)C)NC(=O)[C@H](CC(C)C)NC(=O)[C@@H](NC(=O)[C@H](CO)NC(=O)[C@H](Cc1ccc(O)cc1)NC(=O)[C@H](CC(=O)O)NC(=O)[C@H](CO)NC(=O)[C@@H](NC(=O)[C@H](Cc1ccccc1)NC(=O)[C@@H](NC(=O)CNC(=O)[C@H](CCC(N)=O)NC(=O)C(C)(C)NC(=O)[C@@H](N)Cc1ccc(O)cc1)[C@@H](C)O)[C@@H](C)O)[C@@H](C)CC)C(=O)N[C@@H](CCC(=O)O)C(=O)N[C@@H](Cc1ccc(O)cc1)C(=O)N[C@@H](CC(C)C)C(=O)N[C@@H](CC(C)C)C(=O)N[C@@H](CCC(=O)O)C(=O)NC(C)(C)C(=O)NCC(=O)N1CCC[C@H]1C(=O)N[C@@H](CO)C(=O)N[C@@H](CO)C(=O)NCC(=O)N[C@@H](C)C(=O)N1CCC[C@H]1C(=O)N1CCC[C@H]1C(=O)N1CCC[C@H]1C(=O)N[C@@H](CO)C(N)=O
B6: Example 15 (peptide)
peptide: Y[Aib]QGTFTSDYSILLDKK([AEEA-AEEA-γGlu-C20 diacid])AQ[Aib]AFIEYLLA[Aib]GPSSGAPPPS-NH2
modifications: N-terminus assumed
SMILES: CC[C@H](C)[C@H](NC(=O)[C@H](Cc1ccccc1)NC(=O)[C@H](C)NC(=O)C(C)(C)NC(=O)[C@H](CCC(N)=O)NC(=O)[C@H](C)NC(=O)[C@H](CCCCNC(=O)COCCOCCNC(=O)COCCOCCNC(=O)CC[C@H](NC(=O)CCCCCCCCCCCCCCCCCCC(=O)O)C(=O)O)NC(=O)[C@H](CCCCN)NC(=O)[C@H](CC(=O)O)NC(=O)[C@H](CC(C)C)NC(=O)[C@H](CC(C)C)NC(=O)[C@@H](NC(=O)[C@H](CO)NC(=O)[C@H](Cc1ccc(O)cc1)NC(=O)[C@H](CC(=O)O)NC(=O)[C@H](CO)NC(=O)[C@@H](NC(=O)[C@H](Cc1ccccc1)NC(=O)[C@@H](NC(=O)CNC(=O)[C@H](CCC(N)=O)NC(=O)C(C)(C)NC(=O)[C@@H](N)Cc1ccc(O)cc1)[C@@H](C)O)[C@@H](C)O)[C@@H](C)CC)C(=O)N[C@@H](CCC(=O)O)C(=O)N[C@@H](Cc1ccc(O)cc1)C(=O)N[C@@H](CC(C)C)C(=O)N[C@@H](CC(C)C)C(=O)N[C@@H](C)C(=O)NC(C)(C)C(=O)NCC(=O)N1CCC[C@H]1C(=O)N[C@@H](CO)C(=O)N[C@@H](CO)C(=O)NCC(=O)N[C@@H](C)C(=O)N1CCC[C@H]1C(=O)N1CCC[C@H]1C(=O)N1CCC[C@H]1C(=O)N[C@@H](CO)C(N)=O
B7: Example 18 (peptide)
peptide: Y[Aib]QGTFTSDYSILLDKK([AEEA-γGlu-C20 diacid])AQ[Aib]AFIEYLLEGGPSSGAPPPS-NH2

These binders were tested against human glucagon receptor (human), P47871 (assay: cell-based or functional assay).
human glucagon receptor (human), P47871, sequence (P47871 26-477): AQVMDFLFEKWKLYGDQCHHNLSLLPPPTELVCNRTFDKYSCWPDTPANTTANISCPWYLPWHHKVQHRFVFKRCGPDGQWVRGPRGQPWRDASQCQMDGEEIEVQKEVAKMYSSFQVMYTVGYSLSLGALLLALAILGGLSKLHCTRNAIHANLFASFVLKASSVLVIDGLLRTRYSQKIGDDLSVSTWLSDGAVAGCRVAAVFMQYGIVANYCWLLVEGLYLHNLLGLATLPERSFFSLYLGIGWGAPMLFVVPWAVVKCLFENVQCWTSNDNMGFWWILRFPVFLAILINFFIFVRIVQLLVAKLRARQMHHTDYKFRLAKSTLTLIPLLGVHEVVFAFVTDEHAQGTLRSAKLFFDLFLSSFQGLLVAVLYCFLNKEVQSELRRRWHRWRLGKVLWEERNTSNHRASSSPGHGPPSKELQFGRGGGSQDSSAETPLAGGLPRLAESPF
Binder B1 has a cAMP EC50 (0.1% casein) of 0.135 nM and a cAMP EC50 (FBS and BSA present) of 8.05 nM.
Work on B2 yielded a cAMP EC50 (0.1% casein) of 0.152 nM and a cAMP EC50 (FBS and BSA present) of 8.03 nM.
Binder B3 has a cAMP EC50 (0.1% casein) of 0.0641 nM and a cAMP EC50 (FBS and BSA present) of 3.97 nM.
With B4 the cAMP EC50 (0.1% casein) was 0.174 nM and the cAMP EC50 (FBS and BSA present) was 13.2 nM.
B5 showed a cAMP EC50 (0.1% casein) of 0.0874 nM and a cAMP EC50 (FBS and BSA present) of 8.45 nM.
For B6, the cAMP EC50 (0.1% casein) was 0.131 nM and the cAMP EC50 (FBS and BSA present) was 5.92 nM.
B7 showed a cAMP EC50 (0.1% casein) of 0.0861 nM and a cAMP EC50 (FBS and BSA present) of 5.71 nM.

Target: T1, human GLP-1 receptor (human), P43220
T1 chain: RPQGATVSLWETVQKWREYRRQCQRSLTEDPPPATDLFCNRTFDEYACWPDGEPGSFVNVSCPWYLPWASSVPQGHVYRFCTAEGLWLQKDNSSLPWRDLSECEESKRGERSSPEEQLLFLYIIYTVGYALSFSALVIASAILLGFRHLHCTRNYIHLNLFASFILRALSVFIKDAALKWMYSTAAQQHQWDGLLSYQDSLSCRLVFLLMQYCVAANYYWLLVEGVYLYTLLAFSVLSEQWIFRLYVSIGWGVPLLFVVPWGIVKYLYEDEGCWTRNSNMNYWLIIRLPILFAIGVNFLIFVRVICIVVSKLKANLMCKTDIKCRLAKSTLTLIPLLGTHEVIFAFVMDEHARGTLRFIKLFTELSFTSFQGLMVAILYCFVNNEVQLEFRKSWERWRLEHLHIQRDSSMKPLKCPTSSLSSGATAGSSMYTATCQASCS
Test: cell-based or functional assay
B1 gave a cAMP EC50 (0.1% casein) of 0.153 nM and a cAMP EC50 (FBS and BSA present) of 18.4 nM.
Work on B2 yielded a cAMP EC50 (0.1% casein) of 0.107 nM.
Binder B3 has a cAMP EC50 (0.1% casein) of 0.149 nM and a cAMP EC50 (FBS and BSA present) of 20.6 nM.
Binder B4 has a cAMP EC50 (0.1% casein) of 0.157 nM and a cAMP EC50 (FBS and BSA present) of 19 nM.
B5 was tested, and the cAMP EC50 (0.1% casein) was 0.143 nM and the cAMP EC50 (FBS and BSA present) was 24.4 nM.
B6 showed a cAMP EC50 (0.1% casein) of 0.253 nM and a cAMP EC50 (FBS and BSA present) of 10.7 nM.
For B7, the cAMP EC50 (0.1% casein) was 0.141 nM and the cAMP EC50 (FBS and BSA present) was 16.1 nM.

Target: T2, human GIP receptor (human), P48546
T2 chain: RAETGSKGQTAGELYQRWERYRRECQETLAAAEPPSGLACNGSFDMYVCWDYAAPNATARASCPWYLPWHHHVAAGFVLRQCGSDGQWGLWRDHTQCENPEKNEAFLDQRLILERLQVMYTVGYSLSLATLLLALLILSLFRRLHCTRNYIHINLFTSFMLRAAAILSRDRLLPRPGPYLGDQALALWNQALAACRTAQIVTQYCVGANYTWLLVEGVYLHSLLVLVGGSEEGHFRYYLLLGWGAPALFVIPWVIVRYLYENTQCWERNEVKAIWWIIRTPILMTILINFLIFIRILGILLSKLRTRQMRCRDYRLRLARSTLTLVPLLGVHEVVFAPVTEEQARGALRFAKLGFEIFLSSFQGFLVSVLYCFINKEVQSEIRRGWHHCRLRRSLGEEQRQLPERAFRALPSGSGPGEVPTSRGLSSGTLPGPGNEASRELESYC
Test: cell-based or functional assay
Work on B1 yielded a cAMP EC50 (0.1% casein) of 0.0439 nM and a cAMP EC50 (FBS and BSA present) of 2.38 nM.
B2 showed a cAMP EC50 (0.1% casein) of 0.0376 nM and a cAMP EC50 (FBS and BSA present) of 1.91 nM.
B3 gave a cAMP EC50 (0.1% casein) of 0.0572 nM and a cAMP EC50 (FBS and BSA present) of 3.7 nM.
Binder B4 has a cAMP EC50 (0.1% casein) of 0.114 nM and a cAMP EC50 (FBS and BSA present) of 4.37 nM.
In the case of B5, the cAMP EC50 (0.1% casein) is reported as 0.0455 nM and the cAMP EC50 (FBS and BSA present) is reported as 3.13 nM.
For B6, the cAMP EC50 (0.1% casein) was 0.0689 nM and the cAMP EC50 (FBS and BSA present) was 1.47 nM.
B7 gave a cAMP EC50 (0.1% casein) of 0.123 nM and a cAMP EC50 (FBS and BSA present) of 5.89 nM.

Each binder was assayed against human glucagon receptor (human), P47871 (assay: radioligand competition SPA, HEK293 membranes).
B1 was tested, and the Ki was 5.81 nM.
B2 showed a Ki of 12 nM.
With B3 the Ki was 3.76 nM.
Binder B4 has a Ki of 11.5 nM.
With B5 the Ki was 5.2 nM.
In the case of B6, the Ki is reported as 4.56 nM.
For B7, the Ki was 5.71 nM.

Target: T1, human GLP-1 receptor (human), P43220
Test: radioligand competition SPA, HEK293 membranes
In the case of B1, the Ki is reported as 10.2 nM.
B2 was tested, and the Ki was 6.06 nM.
B3 was tested, and the Ki was 9.23 nM.
Binder B4 has a Ki of 16.1 nM.
B5 was tested, and the Ki was 12 nM.
For B6, the Ki was 5.8 nM.
For B7, the Ki was 8.06 nM.

Target: T2, human GIP receptor (human), P48546
Test: radioligand competition SPA, HEK293 membranes
B1 showed a Ki of 0.0895 nM.
B2 gave a Ki of 0.0446 nM.
In the case of B3, the Ki is reported as 0.109 nM.
With B4 the Ki was 0.106 nM.
B5 was tested, and the Ki was 0.0789 nM.
Work on B6 yielded a Ki of 0.0972 nM.
For B7, the Ki was 0.0835 nM.
